Source: the supplement of paper PMC9170038

Tests used:
[1] = test system: K4 kissing-loop RNA reporter; experiment: apparent KD of K4 kissing-loop reporter; higher = weaker reporter binding; conditions: Eterna round: R107;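 note: bound reporter read as fluorescence of individual clusters on recovered sequencing chips by microscopy, with normalized cluster intensities fitted with a binding model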
Protocol: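 RNA-MaP round R107: designed RNA switches with theophylline, tryptophan, arginine or FMN aptamers are transcribed on-chip within common flanks. They are titrated with a labelled K4 kissing-loop RNA reporter in RNA-MaP buffer (100 mM Tris pH 7.5, 80 mM KCl, 4 mM MgCl2), without ligand or with the indicated ligand. Median apparent KD per design.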

MS2 coat protein = experiment: apparent KD of MS2 coat protein; designed switch direction (-1 OFF switch, 1 ON switch): -1; higher = weaker reporter binding
Summary of the method: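 Designed RNA switches with common flanks were transcribed on Illumina chips by stalled E. coli RNA polymerase and titrated with SNAP-549-labelled MS2 coat protein, from 0.7 or 1.5 nM doubling to 3 µM, in Tris-HCl pH 7.5 buffer with KCl, MgCl2, BSA, DTT, tRNA and Tween-20. Steps lasted 0.8–1.5 h (lowest) to 10–20 min (highest). Titrations ran without input, with 200 uM small-molecule ligand, or with an oligonucleotide input. Normalised cluster fluorescence was curve-fitted, and apparent KD is the per-design median over clusters.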

[2] = input ligand: theophylline 20 uM
[3] = input ligand: tryptophan 2.4 mM
[4] = Eterna round: R95, input ligand: microRNA oligo, concentration not stated
[5] = input ligand: microRNA oligo, concentration not stated

AUUCUAUUGUGAAGGAGCGCGUAUAGUAGUGAUGUUACUAUAAUGAUAGAUACUUAAUUCUCGCAGGUAGGUCGCACAAUAUAUA [JR_Nu_ExcArginiB_Sub024]
apparent KD of K4 kissing-loop reporter ([1]; input ligand: FMN 200 uM): 117 nM
apparent KD of K4 kissing-loop reporter ([1]; input ligand: arginine 13.2 mM): 77.5 nM
apparent KD of K4 kissing-loop reporter ([1]; input ligand: none): 98.8 nM
apparent KD of K4 kissing-loop reporter [1, 2]: 85 nM
apparent KD of K4 kissing-loop reporter [1, 3]: 89.8 nM

GCCUUAUAUCCAGCUACAGCUCUUUUUGGUCGAGGACCGGUACGGCCGCCACUCGAAUGAUAGUGAUGUUAUCGUUUUGUACUAA [JR_Nu_ExcTryptoA_Sub024]
apparent KD of K4 kissing-loop reporter ([1]; input ligand: FMN 200 uM): 97.9 nM
apparent KD of K4 kissing-loop reporter ([1]; input ligand: arginine 13.2 mM): 112 nM
apparent KD of K4 kissing-loop reporter ([1]; input ligand: none): 108 nM
apparent KD of K4 kissing-loop reporter [1, 2]: 101 nM
apparent KD of K4 kissing-loop reporter [1, 3]: 54.7 nM

AUAGAGAAGUGGCACCCUCACUAAAACAGUCGAGGACCGGUACGGCCGCCACUCGCGCGCUUUAGUGAUGUUAAAGAUGUGAAAA
apparent KD of K4 kissing-loop reporter ([1]; input ligand: FMN 200 uM): 223 nM
apparent KD of K4 kissing-loop reporter ([1]; input ligand: arginine 13.2 mM): 209 nM
apparent KD of K4 kissing-loop reporter ([1]; input ligand: none): 223 nM
apparent KD of K4 kissing-loop reporter [1, 2]: 508 nM
apparent KD of K4 kissing-loop reporter [1, 3]: 215 nM

UUUGUAUCGGGAAGGAGCGUGAAUGAUAAUGAAUAUAGUGAUGUUAUAUAUAAGAACGAAUCACAGGUAGGUCGCCCGGAUGACU [SSArgB.O]
apparent KD of K4 kissing-loop reporter ([1]; input ligand: FMN 200 uM): 747 nM
apparent KD of K4 kissing-loop reporter ([1]; input ligand: arginine 13.2 mM): 555 nM
apparent KD of K4 kissing-loop reporter ([1]; input ligand: none): 515 nM
apparent KD of K4 kissing-loop reporter [1, 2]: 729 nM
apparent KD of K4 kissing-loop reporter [1, 3]: 364 nM

UUUCCCGUUCAGGCUGGAAACAUGAGGAUCACCCAUGUUCAAUCGGUUCUGUUAGCUGCUCGUCUUUUACACUUUCC [Eternabot (L1) Solution 39] (Eterna round: R97, puzzle: Sensor, turn-off variant 1)
apparent KD of MS2 coat protein (MS2 coat protein; input ligand: FMN 200 uM): 20.5 nM
apparent KD of MS2 coat protein (MS2 coat protein; input ligand: none): 20.3 nM

ACUCUUCUUGUUAGGAUAUGCAUCGGGCUUCCGCAGCAGAAGGAACAUGAGGAUCACCCAUGUCAAAUAAAAUC (Eterna round: R97, puzzle: Brourd's mod of Exclusion 4)
apparent KD of MS2 coat protein (MS2 coat protein; input ligand: FMN 200 uM): 141 nM
apparent KD of MS2 coat protein (MS2 coat protein; input ligand: none): 20.8 nM

UCCACACAUGAGGAUCACCCAUGUGAGGAUAUCAUGCUUCGUAGUAAACUACGAAGUGUGAGAAGGCACAUGGC [Omei Ex1 D13] (Eterna round: R97, puzzle: Exclusion 1)
apparent KD of MS2 coat protein (MS2 coat protein; input ligand: FMN 200 uM): 94.7 nM
apparent KD of MS2 coat protein (MS2 coat protein; input ligand: none): 24.9 nM

UUAUUAAGUGUGAGGAUAUGCUGGUCCUUGGAUCAGCAGAAGGCACAUGAGGAUCACCCAUGUACAUUAUUUUA [Mat - Exclusion 4 - JL Mod - D28] (puzzle: Brourd's mod of Exclusion 4)
apparent KD of MS2 coat protein (MS2 coat protein; [4]): 31.6 nM

AGCUAAAUAGGAUAUGCCCGGGAUAACAUGAGGAUCACCCAUGUGACCGAUUCAUGUCCUGCAGAAGGAUUUGGGA [Mod of ViennaUCT 5 - Jieux - Exclusion 5] (Eterna round: R97, puzzle: Exclusion 5)
apparent KD of MS2 coat protein (MS2 coat protein; input ligand: FMN 200 uM): 17 nM
apparent KD of MS2 coat protein (MS2 coat protein; input ligand: none): 13 nM

AAACGGGUGUCCUCGUUUUCAACAUGAGGAUCACCCAUGUUCGAGGAUAUCCAAUAAGCUCUUCAGGAGAAGGCGAACAUAAAA [Anenence] (Eterna round: R96, puzzle: Exclusion NG 3)
apparent KD of MS2 coat protein (MS2 coat protein; input ligand: FMN 200 uM): 20.1 nM
apparent KD of MS2 coat protein (MS2 coat protein; [5]): 13.3 nM
apparent KD of MS2 coat protein (MS2 coat protein; input ligand: none): 15.7 nM

AGCUAGUCAGGAUAUACGAACAUGUCAAAAGACGUGAAGGGACAUGAGGAUCACCCAUGUAGAAGGGACUAGCC [salish99-Ex2-17] (Eterna round: R96, puzzle: Exclusion 2)
apparent KD of MS2 coat protein (MS2 coat protein; [5]): 23.8 nM

UCUAGGAGAGGAUAUACAUGAGGAUCACCCAUGUGCAUGAUCAGGCGUCAGUCGCACCGUAGAAGGUUCCAGAA [Eternabot (L2) Solution 40] (Eterna round: R97, puzzle: Exclusion 3)
apparent KD of MS2 coat protein (MS2 coat protein; input ligand: FMN 200 uM): 89.9 nM
apparent KD of MS2 coat protein (MS2 coat protein; input ligand: none): 47 nM

UACCGGCGGACCGAGGCUUUUUGCUCGUCUUAUACUACAACAUGAGGAUCACCCAUGUGGUGGUGGUCCGUUGUAGU [JL ViennaUCT Bitein mod 5] (puzzle: Sensor v3, turn-off variant 2)
apparent KD of MS2 coat protein (MS2 coat protein; Eterna round: R95, input ligand: FMN 200 uM): 21.7 nM
apparent KD of MS2 coat protein (MS2 coat protein; [4]): 6.09 nM
apparent KD of MS2 coat protein (MS2 coat protein; Eterna round: R95, input ligand: none): 16.2 nM

CCUCUGUGAGGAUAUUGGCAACACUGCACCCAAUAAAGCGCCGAGAAGGCACAUGAGGAUCACCCAUGUACGCA [Eternabot (L1) Solution 66] (Eterna round: R97, puzzle: Exclusion 4)
apparent KD of MS2 coat protein (MS2 coat protein; input ligand: FMN 200 uM): 22.4 nM
apparent KD of MS2 coat protein (MS2 coat protein; input ligand: none): 18.4 nM
